# T1: F-P564 peptide
# T1 chain: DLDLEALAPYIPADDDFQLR
# B1: HIF-1alpha specific prolyl-4-hydroxylase-2 (PHD-2) (protein)
# chain: MANDSGGPGGPSPSERDRQYCELCGKMENLLRCSRCRSSFYCCKEHQRQDWKKHKLVCQGSEGALGHGVGPHQHSGPAPPAAVPPPRAGAREPRKAAARRDNASGDAAKGKVKAKPPADPAAAASPCRAAAGGQGSAVAAEAEPGKEEPPARSSLFQEKANLYPPSNTPGDALSPGGGLRPNGQTKPLPALKLALEYIVPCMNKHGICVVDDFLGKETGQQIGDEVRALHDTGKFTDGQLVSQKSDSSKDIRGDKITWIEGKEPGCETIGLLMSSMDDLIRHCNGKLGSYKINGRTKAMVACYPGNGTGYVRHVDNPNGDGRCVTCIYYLNKDWDAKVSGGILRIFPEGKAQFADIEPKFDRLLFFWSDRRNPHEVQPAYATRYAITVWYFDADERARAKVKYLTGEKGVRVELNKPSDSVGKDVF
# Target: T1, F-P564 peptide
protein,measurement,value
B1,"prolyl hydroxylation of F-P564 peptide, mass analysis",the 564th proline group in F-P564 was hydroxylated by the addition of prolyl hydroxylase

# — patent US20070020718
